Assays:
[1] = target: LTB−JEV EDIII (TEV cut) (not stated | Japanese encephalitis virus); assay: PAGE under non-reduced conditions (without boiling, without DTT)
[2] = target: LTB−JEV EDIII (TEV cut) (not stated | Japanese encephalitis virus); assay: PAGE after incubation at different temperatures
[3] = target: LTB−JEV EDIII (TEV cut) (not stated | Japanese encephalitis virus); assay: SEC
[4] = target: CTB−JEV EDIII (not stated | Japanese encephalitis virus); assay: PAGE under non-reduced conditions (without boiling, without DTT)
[5] = target: CTB−JEV EDIII (not stated | Japanese encephalitis virus); assay: PAGE after incubation at different temperatures

| Substance | stoichiometry N [1] | stoichiometry N [2] | stoichiometry N [3] | stoichiometry N [4] | stoichiometry N [5] |
| --- | --- | --- | --- | --- | --- |
| LTB−JEV EDIII (TEV cut) | 5 | 5 | 5 | – | – |
| CTB−JEV EDIII | – | – | – | 5 | 5 |

From publication PMC10467048
